Source: patent US20060063223A1 (CHEMOCENTRYX, published 2006)
One block for each molecule: values may come before it.

Experiments:
[1] = molecular target: T1, human CCR1 (C-C chemokine receptor-1) (human, UniProt P32246 1-355); experiment: cell-based or functional assay
T1 sequence (looked up): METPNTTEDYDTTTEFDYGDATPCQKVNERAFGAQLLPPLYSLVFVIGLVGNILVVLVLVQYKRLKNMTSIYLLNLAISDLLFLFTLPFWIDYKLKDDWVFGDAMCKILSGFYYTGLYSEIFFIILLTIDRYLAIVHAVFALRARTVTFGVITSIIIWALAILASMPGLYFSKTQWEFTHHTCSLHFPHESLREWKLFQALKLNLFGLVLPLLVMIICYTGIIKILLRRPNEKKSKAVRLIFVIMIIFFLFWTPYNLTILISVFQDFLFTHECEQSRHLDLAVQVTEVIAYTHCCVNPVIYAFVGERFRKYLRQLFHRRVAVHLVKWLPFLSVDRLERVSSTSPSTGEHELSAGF

[2] = molecular target: T1, human CCR1 (C-C chemokine receptor-1); experiment: competition with 125I-MIP-1α on human monocytes
[3] = molecular target: T2, human FPRL1 (formyl peptide receptor like 1) (human, UniProt P25090 1-351); experiment: competition with 125I-WKYMVm on human monocytes, filter binding
T2 construct: whole, on cells; also called L1.2-FPRL1; CCR12 (provisional)
T2 sequence (looked up): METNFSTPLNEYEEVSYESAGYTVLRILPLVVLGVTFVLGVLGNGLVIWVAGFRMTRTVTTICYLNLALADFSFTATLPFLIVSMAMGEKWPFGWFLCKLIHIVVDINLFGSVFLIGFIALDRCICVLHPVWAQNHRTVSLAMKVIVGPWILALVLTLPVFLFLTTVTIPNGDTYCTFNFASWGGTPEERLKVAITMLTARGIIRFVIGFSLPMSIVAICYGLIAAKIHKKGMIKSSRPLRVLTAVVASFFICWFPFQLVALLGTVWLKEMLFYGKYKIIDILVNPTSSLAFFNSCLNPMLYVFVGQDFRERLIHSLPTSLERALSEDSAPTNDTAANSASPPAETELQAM
Experimental: (§1) Binding assay. Competition binding studies were conducted using monocytes, L1.2-CCR1 or L1.2-FPRL1 cells. […] Reactions were aspirated onto PEI-treated GF/B glass filters using a cell harvester (Packard). Filters were washed twice (25 mM HEPES, 500 mM NaCl, 1 mM CaCl₂, 5 mM MgCl₂, adjusted to pH 7.1). Scintillant (MicroScint-10; 35 μl) was added to the filters and counted in a Packard Topcount scintillation counter. Data were analyzed and plotted using Prism (GraphPad Software, San Diego, Calif.).

[4] = molecular target: T2, human FPRL1 (formyl peptide receptor …); experiment: competition with 125I-WKYMVm on L1.2-FPRL1 cells, filter binding
Experimental: as §1

[5] = molecular target: T1, human CCR1 (C-C chemokine receptor-1); experiment: competition with 125I-MIP-1α on L1.2-CCR1 cells, 3 hr at 4° C., filter binding
Experimental: as §1

[6] = molecular target: T1, human CCR1 (C-C chemokine receptor-1); experiment: competition with 125I-MIP-1α on human monocytes, 3 hr at 4° C., filter binding
Experimental: as §1

[7] = molecular target: T2, human FPRL1 (formyl peptide receptor …); experiment: cell-based or functional assay
[8] = molecular target: T1, human CCR1 (C-C chemokine receptor-1); experiment: competition with 125I-MIP-1α on L1.2-CCR1 cells
Experimental: as §1

Molecule: CCL5/RANTES (from UniProt P13501 24-91) (ligand)
EC50, THP-1 cell migration [1]: 0.5 nM | fold decrease in potency in THP-1 cell chemotaxis relative to CCL15Δ24/LKN-1 [1]: 3 fold

B1: CCL15/MIP-1δ digested with PMN sup #1 (ligand)
chain: VLNSFHFAADCCTSYISQSIPCSLMKSYFETSSECSKPGVIFLTKKGRQVCAKPSGPGVQDCMKKLKPYSI
EC50, THP-1 cell chemotaxis [1]: 0.25 nM

B3: CCL23/CKβ8 digested with chymase (ligand)
chain: HATSADCCISYTPRSIPCSLLESYFETNSECSKPGVIFLTKKGRRFCANPSDKQVQVCMRMLKLDTRIKTRKN
EC50, THP-1 cell chemotaxis [1]: 0.05 nM | fold decrease of EC50 against undigested CCL23/CKβ8, THP-1 cell chemotaxis [1]: 50 fold

B4: CCL23/CKβ8 digested with PMN sup #1 (ligand)
chain: LLDRFHATSADCCISYTPRSIPCSLLESYFETNSECSKPGVIFLTKKGRRFCANPSDKQVQVCMRMLKLDTRIKTRKN
EC50, THP-1 cell chemotaxis [1]: 0.15 nM

B6: CCL15Δ24/LKN-1 (68aa) (ligand)
chain: SFHFAADCCTSYISQSIPCSLMKSYFETSSECSKPGVIFLTKKGRQVCAKPSGPGVQDCMKKLKPYSI
EC50, THP-1 cell chemotaxis [1]: 0.06 nM

B8: CCL15/MIP-1δ digested with chymase (ligand)
chain: AADCCTSYISQSIPCSLMKSYFETSSECSKPGVIFLTKKGRQVCAKPSGPGVQDCMKKLKPYSI
EC50, THP-1 cell chemotaxis [1]: 0.05 nM | fold increase of potency in THP-1 cell migration over full-length CCL15/MIP-1δ [1]: 1000 fold

B9: CCL23α (CCL23/CKβ8, 22-120) (ligand)
chain: RVTKDAETEFMMSKLPLENPVLLDRFHATSADCCISYTPRSIPCSLLESYFETNSECSKPGVIFLTKKGRRFCANPSDKQVQVCMRMLKLDTRIKTRKN
EC50, THP-1 cell chemotaxis [1]: 2.5 nM

B10: CCL3/MIP-1α (ligand, UniProt P10147 27-92, looked up)
chain: ADTPTACCFSYTSRQIPQNFIADYFETSSQCSKPGVIFLTKRSRQVCADPSEEWVQKYVSDLELSA
modifications: also: 125I-labelled when used as tracer
EC50, THP-1 cell migration [1]: 0.5 nM | fold decrease in potency in THP-1 cell chemotaxis relative to CCL15Δ24/LKN-1 [1]: ~3 fold | IC50 [5]: 0.15 nM | IC50 [6]: 0.3 nM

B11: CCL15/MIP-1δ (92aa) (ligand)
chain: QFINDAETELMMSKLPLENPVVLNSFHFAADCCTSYISQSIPCSLMKSYFETSSECSKPGVIFLTKKGRQVCAKPSGPGVQDCMKKLKPYSI
EC50, THP-1 cell chemotaxis [1]: 50 nM

B12: CCL23α Δ24 (CCL23Δ24/MPIF-1, 46-120) (ligand)
chain: RFHATSADCCISYTPRSIPCSLLESYFETNSECSKPGVIFLTKKGRRFCANPSDKQVQVCMRMLKLDTRIKTRKN
notes: Recombinant CCL23/CKβ8 lacking the N-terminal 24 residues
EC50, THP-1 cell chemotaxis [1]: 0.09 nM | fold increase in binding activity over full-length CCL23α [2]: > 10 fold

Results, then the molecule that gave them:

fold increase in binding activity over full-length CCL23β [2]: > 10 fold | IC50 [3]: 35 nM | IC50 [4]: 210 nM | IC50 [5]: 20 nM | IC50 [6]: 4.5 nM
B2: CCL23β Δ24 (ligand)
chain: MLWRRKIGPQMTLSHAAGFHATSADCCISYTPRSIPCSLLESYFETNSECSKPGVIFLTKKGRRFCANPSDKQVQVCMRMLKLDTRIKTRKN
notes: Begins with the 18-residue SHAAGtide insertion; R&D Systems catalog item; also called CCLβΔ24

potency for receptor signaling in L1.2-FPRL1 cells, relative to SHAAGtide [7]: 3 fold
Molecule: MLWRRKIGPQMT [CCXP5]

binding result [2]: binds
B5: CCL23β (ligand)
chain: RVTKDAETEFMMSKLPLENPVLLDMLWRRKIGPQMTLSHAAGFHATSADCCISYTPRSIPCSLLESYFETNSECSKPGVIFLTKKGRRFCANPSDKQVQVCMRMLKLDTRIKTRKN
notes: 116-residue alternatively spliced form; recombinant, special order from R&D Systems; also called CKβ8-1

EC50 in functional assays [7]: 10 to 30 nM | binding result [8]: no binding | IC50 [3]: 10 nM | IC50 [4]: 280 nM
B7: SHAAGtide (MLWRRKIGPQMTLSHAAG) (peptide)
peptide: MLWRRKIGPQMTLSHAAG
notes: Synthetic 18-residue peptide; also called CCXP1; SHAAGtide peptide

fold decrease in potency for receptor signaling in L1.2-FPRL1 cells, relative to SHAAGtide [7]: ~10 fold
Molecule: LWRRKIGPQMTLSHAAG [SHAAGtide lacking the N-terminal amino acid (Met)]
